Data set [1] concerns the target C3b:FH1-4 complex (chip-bound C3b with co-injected WT FH1-4).
In data set [2] the target is T1, C3b:FH1-4 complex (chip-bound C3b with co-injected WT FH1-4) (human, UniProt P01024 23-667; P01024 749-1663; P08603 19-263).
T1 construct: Composite target for the FI variants in the trimolecular complex (TMC) building assay, made of m1 and m3; FI and FH1-4 were injected together over C3b; also called FH/C3b; FH-1-4/C3b
Put plainly: SPR TMC building, 62.5 nM FI with 125 nM WT FH1-4 over amine-coupled C3b.

The target of data set [3] is T2, Human C3b (wild type), immobilised on a CM5 sensor chip (human, UniProt P01024 23-667; P01024 749-1663).
T2 construct: also called WT C3b; WT C3
T2 sequence (P01024 23-667 limits assumed, chain 1 of 2): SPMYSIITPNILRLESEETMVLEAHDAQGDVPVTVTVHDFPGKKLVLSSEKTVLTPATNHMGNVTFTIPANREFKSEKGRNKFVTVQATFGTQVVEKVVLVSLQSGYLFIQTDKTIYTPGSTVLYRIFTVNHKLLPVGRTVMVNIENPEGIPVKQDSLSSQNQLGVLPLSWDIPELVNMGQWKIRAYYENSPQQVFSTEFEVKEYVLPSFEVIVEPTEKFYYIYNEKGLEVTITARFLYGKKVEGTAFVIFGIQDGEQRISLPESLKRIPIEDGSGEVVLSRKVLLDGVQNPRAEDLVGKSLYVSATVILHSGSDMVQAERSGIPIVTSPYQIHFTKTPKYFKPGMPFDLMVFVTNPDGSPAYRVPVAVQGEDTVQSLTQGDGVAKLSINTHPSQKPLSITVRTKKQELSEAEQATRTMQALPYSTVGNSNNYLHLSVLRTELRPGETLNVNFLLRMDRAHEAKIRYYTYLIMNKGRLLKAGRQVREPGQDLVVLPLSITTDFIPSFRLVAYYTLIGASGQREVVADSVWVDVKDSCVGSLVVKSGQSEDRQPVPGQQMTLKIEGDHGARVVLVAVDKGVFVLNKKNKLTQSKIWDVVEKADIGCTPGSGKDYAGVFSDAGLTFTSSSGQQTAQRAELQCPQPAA
T2 sequence (P01024 749-1663 limits assumed, chain 2 of 2): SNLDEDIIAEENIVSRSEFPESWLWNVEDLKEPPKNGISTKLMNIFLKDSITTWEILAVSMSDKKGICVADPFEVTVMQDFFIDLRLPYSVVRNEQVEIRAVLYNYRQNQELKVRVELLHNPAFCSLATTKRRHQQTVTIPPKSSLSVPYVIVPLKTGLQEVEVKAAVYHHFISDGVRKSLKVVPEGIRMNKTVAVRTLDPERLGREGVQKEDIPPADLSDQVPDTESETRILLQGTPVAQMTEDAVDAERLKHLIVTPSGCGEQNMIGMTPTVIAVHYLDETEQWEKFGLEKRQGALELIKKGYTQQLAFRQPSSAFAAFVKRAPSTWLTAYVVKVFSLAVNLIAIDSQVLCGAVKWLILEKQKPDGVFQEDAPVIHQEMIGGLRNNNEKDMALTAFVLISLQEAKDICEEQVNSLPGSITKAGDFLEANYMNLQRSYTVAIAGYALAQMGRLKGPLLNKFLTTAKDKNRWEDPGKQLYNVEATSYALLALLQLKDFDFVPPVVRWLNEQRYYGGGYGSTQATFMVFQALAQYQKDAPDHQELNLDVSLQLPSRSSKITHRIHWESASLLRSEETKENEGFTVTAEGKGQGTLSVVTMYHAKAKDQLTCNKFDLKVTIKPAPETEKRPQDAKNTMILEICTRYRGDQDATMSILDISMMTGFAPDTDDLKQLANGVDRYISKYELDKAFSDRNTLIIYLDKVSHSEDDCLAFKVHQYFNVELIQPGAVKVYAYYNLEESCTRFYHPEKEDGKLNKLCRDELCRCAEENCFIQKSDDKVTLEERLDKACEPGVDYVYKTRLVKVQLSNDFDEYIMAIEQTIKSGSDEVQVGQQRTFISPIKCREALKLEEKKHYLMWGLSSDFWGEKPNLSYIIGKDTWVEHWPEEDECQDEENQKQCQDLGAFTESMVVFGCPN
Briefly: SPR steady-state affinity, FH19-20 20-0.156 µM over thioester-coupled WT C3b (899 RU); WT C3b on the chip, not the L1109V mutant.

For data set [4], the target named is T3, L1109V mutant C3b, immobilised on a CM5 sensor chip (human, UniProt P01024 23-667; P01024 749-1663).
T3 construct: C3 purified from the serum of a homozygous aHUS patient and converted to C3b on the chip (898 RU, thioester coupled); also called L1109V C3b; variant C3b
T3 sequence (P01024 23-667 limits assumed, chain 1 of 2): as the sequence (P01024 23-667 limits assumed, chain 1 of 2) above
T3 sequence (P01024 749-1663 L1109V limits assumed, chain 2 of 2): as the sequence (P01024 749-1663 limits assumed, chain 2 of 2) above, with L361V counted along it
Put plainly: SPR steady-state affinity, FH19-20 20-0.156 µM over thioester-coupled L1109V C3b (898 RU); fitted KD from the same SPR run on L1109V C3b that the text calls a lack of binding.

In data set [5] the target is T2, Human C3b (wild type), immobilised on a …. Put plainly: SPR steady-state affinity, FH1-4 20-0.156 µM over thioester-coupled WT C3b (899 RU).
Data set [6] concerns the target T3, L1109V mutant C3b, immobilised on a CM5 …. Put plainly: SPR steady-state affinity, FH1-4 20-0.156 µM over thioester-coupled L1109V C3b (898 RU).
Data set [7] has as its target T2, Human C3b (wild type), immobilised on a …. Briefly: SPR steady-state affinity fit (BIAevaluation S200), WT FH1-4 over C3b immobilised on a CM5 chip. The source says:
Data was collected at 40 Hz and there was a 120s stabilisation period between each sample being injected.

For data set [8] the target is unchanged. Briefly: SPR steady-state affinity fit (BIAevaluation S200), WT FH1-4 over thiol-coupled WT C3b (899 RU) on a CM5 chip, PBST [Continued].
Data set [9] addresses T3, L1109V mutant C3b, immobilised on a CM5 …. Put plainly: SPR affinity estimate, FL-FH over thioester-coupled mutant and WT C3b. An excerpt: (§1) Dissociation constants (KD) are given under the graphs showing each concentration vs RU curve labelled with the appropriate variant.
The target in data set [10] is T2, Human C3b (wild type), immobilised on a …. Put plainly: SPR affinity estimate (not steady state), FL-FH 250-7.8 nM over thioester-coupled WT C3b.
Excerpt: as §1

For data set [11], the target named is T3, L1109V mutant C3b, immobilised on a CM5 …. Put plainly: SPR affinity fit (BIAevaluation), WT full length FH over thiol-coupled L1109V C3b (898 RU) on a CM5 chip, PBST; printed under both panels [Continued].
Excerpt: as §1

The term Kd denotes the concentration at which binding is half-saturated.

T1 sequence (P01024 23-667 limits assumed, chain 1 of 2): as the sequence (P01024 23-667 limits assumed, chain 1 of 2) above
T1 sequence (P01024 749-1663 limits assumed, chain 2 of 2): as the sequence (P01024 749-1663 limits assumed, chain 2 of 2) above

B1: Inactive (S525A) Complement Factor I (protein)
chain: KVTYTSQEDLVEKKCLAKKYTHLSCDKVFCQPWQRCIEGTCVCKLPYQCPKNGTAVCATNRRSFPTYCQQKSLECLHPGTKFLNNGTCTAEGKFSVSLKHGNTDSEGIVEVKLVDQDKTMFICKSSWSMREANVACLDLGFQQGADTQRRFKLSDLSINSTECLHVHCRGLETSLAECTFTKRRTMGYQDFADVVCYTQKADSPMDDFFQCVNGKYISQMKACDGINDCGDQSDELCCKACQGKGFHCKSGVCIPSQYQCNGEVDCITGEDEVGCAGFASVTQEETEILTADMDAERRRIKSLLPKLSCGVKNRMHIRRKRIVGGKRAQLGDLPWQVAIKDASGITCGGIYIGGCWILTAAHCLRASKTHRYQIWTTVVDWIHPDLKRIVIEYVDRIIFHENYNAGTYQNDIALIEMKKDGNKKDCELPRSIPACVPWSPYLFQPNDTCIVSGWGREKDNERVFSLQWGEVKLISNCSKFYGNRFYEKEMECAGTYDGSIDACKGDAGGPLVCMDANNVTYVWGVVSWGENCGKPEFPGVYTKVANYFDWISYHVGRPFISQYNV
Consider B1, for which, in [1], the “cleavage of chip-bound C3b (SPR, convertase rebuilt before and after)” value is reported as “Inactive (S525A) FI therefore demonstrated binding of the components of the AP regulatory TMC without cleaving the chip surface”.

B2: Complement Factor I with only an H380R mutation (protein)
chain: KVTYTSQEDLVEKKCLAKKYTHLSCDKVFCQPWQRCIEGTCVCKLPYQCPKNGTAVCATNRRSFPTYCQQKSLECLHPGTKFLNNGTCTAEGKFSVSLKHGNTDSEGIVEVKLVDQDKTMFICKSSWSMREANVACLDLGFQQGADTQRRFKLSDLSINSTECLHVHCRGLETSLAECTFTKRRTMGYQDFADVVCYTQKADSPMDDFFQCVNGKYISQMKACDGINDCGDQSDELCCKACQGKGFHCKSGVCIPSQYQCNGEVDCITGEDEVGCAGFASVTQEETEILTADMDAERRRIKSLLPKLSCGVKNRMHIRRKRIVGGKRAQLGDLPWQVAIKDASGITCGGIYIGGCWILTAARCLRASKTHRYQIWTTVVDWIHPDLKRIVIEYVDRIIFHENYNAGTYQNDIALIEMKKDGNKKDCELPRSIPACVPWSPYLFQPNDTCIVSGWGREKDNERVFSLQWGEVKLISNCSKFYGNRFYEKEMECAGTYDGSIDACKGDSGGPLVCMDANNVTYVWGVVSWGENCGKPEFPGVYTKVANYFDWISYHVGRPFISQYNV
As to B2, in data set [1], the “cleavage of chip-bound C3b (SPR)” value was “H380R FI appears to bind to WT FH1-4/C3b without cleaving the C3b coupled chip surface”.

B3: Y459S inactive (S525A) Complement Factor I (enzyme)
chain: KVTYTSQEDLVEKKCLAKKYTHLSCDKVFCQPWQRCIEGTCVCKLPYQCPKNGTAVCATNRRSFPTYCQQKSLECLHPGTKFLNNGTCTAEGKFSVSLKHGNTDSEGIVEVKLVDQDKTMFICKSSWSMREANVACLDLGFQQGADTQRRFKLSDLSINSTECLHVHCRGLETSLAECTFTKRRTMGYQDFADVVCYTQKADSPMDDFFQCVNGKYISQMKACDGINDCGDQSDELCCKACQGKGFHCKSGVCIPSQYQCNGEVDCITGEDEVGCAGFASVTQEETEILTADMDAERRRIKSLLPKLSCGVKNRMHIRRKRIVGGKRAQLGDLPWQVAIKDASGITCGGIYIGGCWILTAAHCLRASKTHRYQIWTTVVDWIHPDLKRIVIEYVDRIIFHENYNAGTYQNDIALIEMKKDGNKKDCELPRSIPACVPWSPSLFQPNDTCIVSGWGREKDNERVFSLQWGEVKLISNCSKFYGNRFYEKEMECAGTYDGSIDACKGDAGGPLVCMDANNVTYVWGVVSWGENCGKPEFPGVYTKVANYFDWISYHVGRPFISQYNV
notes: also called Y459S FI
Consider B3, for which, in [2], the “increase in response (RU)” value was ~2 RU.

B4: Complement Factor I, wild type (active) (protein)
chain 1: KVTYTSQEDLVEKKCLAKKYTHLSCDKVFCQPWQRCIEGTCVCKLPYQCPKNGTAVCATNRRSFPTYCQQKSLECLHPGTKFLNNGTCTAEGKFSVSLKHGNTDSEGIVEVKLVDQDKTMFICKSSWSMREANVACLDLGFQQGADTQRRFKLSDLSINSTECLHVHCRGLETSLAECTFTKRRTMGYQDFADVVCYTQKADSPMDDFFQCVNGKYISQMKACDGINDCGDQSDELCCKACQGKGFHCKSGVCIPSQYQCNGEVDCITGEDEVGCAGFASVAQEETEILTADMDAERRRIKSLLPKLSCGVKNRMHI
chain 2: IVGGKRAQLGDLPWQVAIKDASGITCGGIYIGGCWILTAAHCLRASKTHRYQIWTTVVDWIHPDLKRIVIEYVDRIIFHENYNAGTYQNDIALIEMKKDGNKKDCELPRSIPACVPWSPYLFQPNDTCIVSGWGREKDNERVFSLQWGEVKLISNCSKFYGNRFYEKEMECAGTYDGSIDACKGDSGGPLVCMDANNVTYVWGVVSWGENCGKPEFPGVYTKVANYFDWISYHVGRPFISQYNV
On to B4, for which the “cleavage of chip-bound C3b to iC3b (SPR, 25° C.)” value in [1] is “the chip was shown to be degraded almost instantaneously after formation of a small amount of TMC (˜3 RU) and conversion of C3b to iC3b”.

B5: Complement Factor H CCP domains 19-20 (WT FH CCP19-20) (other, human, UniProt P08603 1107-1231, looked up)
chain: GKCGPPPPIDNGDITSFPLSVYAPASSVEYQCQNLYQLEGNKRITCRNGQWSEPPKCLHPCVISREIMENYNIALRWTAKQKLYSRTGESVEFVCKRGYRLSSRSHTLRTTCWDGKLEYPTCAKR
notes: domain: CCP19-20; also called FH19-20
As for B5, the Kd is 9.92 µM in data set [3] and ~358 µM in [4].

B6: Recombinant Human Complement Factor H CCPs 1-4 (6x His-tagged), wild type (other)
chain: EKREAEAAGEQKLISEEDLEDCNELPPRRNTEILTGSWSDQTYPEGTQAIYKCRPGYRSLGNVIMVCRKGEWVALNPLRKCQKRPCGHPGDTPFGTFTLTGGNVFEYGVKAVYTCNEGYQLLGEINYRECDTDGWTNDIPICEVVKCLPVTAPENGKIVSSAMEPDREYHFGQAVRFVCNSGYKIEGDEEMHCSDDGFWSKEKPKCVEISCKSPDVINGSPISQKIIYKENERFQYKCNMGYEYSERGDAVCTESGWRPLPSCEHHHHHH
notes: Produced in-house; also called FH1-4; WT FH1-4
On to B6, for which the Kd in data set [5] was found to be 8.1 µM; in data set [6] it was 9.2 µM; in data set [7], 10.1 µM; in data set [8], 8.09 µM.

B7: Full Length Human Complement Factor H (FH) (other)
chain: EDCNELPPRRNTEILTGSWSDQTYPEGTQAIYKCRPGYRSLGNVIMVCRKGEWVALNPLRKCQKRPCGHPGDTPFGTFTLTGGNVFEYGVKAVYTCNEGYQLLGEINYRECDTDGWTNDIPICEVVKCLPVTAPENGKIVSSAMEPDREYHFGQAVRFVCNSGYKIEGDEEMHCSDDGFWSKEKPKCVEISCKSPDVINGSPISQKIIYKENERFQYKCNMGYEYSERGDAVCTESGWRPLPSCEEKSCDNPYIPNGDYSPLRIKHRTGDEITYQCRNGFYPATRGNTAKCTSTGWIPAPRCTLKPCDYPDIKHGGLYHENMRRPYFPVAVGKYYSYYCDEHFETPSGSYWDHIHCTQDGWSPAVPCLRKCYFPYLENGYNQNYGRKFVQGKSIDVACHPGYALPKAQTTVTCMENGWSPTPRCIRVKTCSKSSIDIENGFISESQYTYALKEKAKYQCKLGYVTADGETSGSITCGKDGWSAQPTCIKSCDIPVFMNARTKNDFTWFKLNDTLDYECHDGYESNTGSTTGSIVCGYNGWSDLPICYERECELPKIDVHLVPDRKKDQYKVGEVLKFSCKPGFTIVGPNSVQCYHFGLSPDLPICKEQVQSCGPPPELLNGNVKEKTKEEYGHSEVVEYYCNPRFLMKGPNKIQCVDGEWTTLPVCIVEESTCGDIPELEHGWAQLSSPPYYYGDSVEFNCSESFTMIGHRSITCIHGVWTQLPQCVAIDKLKKCKSSNLIILEEHLKNKKEFDHNSNIRYRCRGKEGWIHTVCINGRWDPEVNCSMAQIQLCPPPPQIPNSHNMTTTLNYRDGEKVSVLCQENYLIQEGEEITCKDGRWQSIPLCVEKIPCSQPPQIEHGTINSSRSSQESYAHGTKLSYTCEGGFRISEENETTCYMGKWSSPPQCEGLPCKSPPEISHGVVAHMSDSYQYGEEVTYKCFEGFGIDGPAIAKCLGEKWSHPPSCIKTDCLSLPSFENAIPMGEKKDVYKAGEQVTYTCATYYKMDGASNVTCINSRWTGRPTCRDTSCVNPPTVQNAYIVSRQMSKYPSGERVRYQCRSPYEMFGDEEVMCLNGNWTEPPQCKDSTGKCGPPPPIDNGDITSFPLSVYAPASSVEYQCQNLYQLEGNKRITCRNGQWSEPPKCLHPCVISREIMENYNIALRWTAKQKLYSRTGESVEFVCKRGYRLSSRSHTLRTTCWDGKLEYPTCAKR
notes: Bought (CompTech, A137); also called FL-FH; FLFH
With B7, the “fold change of KD, mutant C3b against WT C3b” value in [9] is 3.6 fold. Also, the Kd in data set [10] was 0.28 µM; in data set [11] it was 1.01 µM.

(Values after patent US20240255503A1 (UNIVERSITY OF NEWCASTLE UPON TYNE, published 2024).)
